We go through four molecules from patent US20020155114A1 (published 2002).

Experiment [1] addresses T1, BoNT/A Hc (C-terminal domain of botulinum neurotoxin type A heavy chain, binding domain) (Clostridium botulinum (type A serotype), UniProt P0DPI0 860-1296).
For experiment [2], the target named is T1, BoNT/A Hc (C-terminal domain of …). Nature of the experiment: SPR (BIAcore), BoNT/A Hc coupled to CM5 chip, purified scFv in flow. For orientation: In SPR one partner is held on a chip, and binding of the other changes the refractive index at the surface.
Experiment [3] addresses botulinum neurotoxin type A (BoNT/A), pure holotoxin (Clostridium botulinum (type A serotype), UniProt P0DPI0 2-1296). Nature of the experiment: cell-based or functional assay.

T1 sequence (P0DPI0 860-1296): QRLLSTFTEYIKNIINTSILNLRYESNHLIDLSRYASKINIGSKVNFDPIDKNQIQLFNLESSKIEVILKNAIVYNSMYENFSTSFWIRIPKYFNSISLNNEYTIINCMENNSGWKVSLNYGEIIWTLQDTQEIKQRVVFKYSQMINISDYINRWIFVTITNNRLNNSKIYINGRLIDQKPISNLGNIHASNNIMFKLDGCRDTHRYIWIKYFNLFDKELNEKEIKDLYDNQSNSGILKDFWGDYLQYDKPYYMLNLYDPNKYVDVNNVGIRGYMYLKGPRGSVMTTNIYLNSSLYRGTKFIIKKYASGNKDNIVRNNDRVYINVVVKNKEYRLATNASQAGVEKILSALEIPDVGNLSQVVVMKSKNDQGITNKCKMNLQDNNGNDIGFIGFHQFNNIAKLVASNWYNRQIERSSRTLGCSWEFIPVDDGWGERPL
botulinum neurotoxin type A (BoNT/A), pure holotoxin, sequence (P0DPI0 2-1296 limits assumed): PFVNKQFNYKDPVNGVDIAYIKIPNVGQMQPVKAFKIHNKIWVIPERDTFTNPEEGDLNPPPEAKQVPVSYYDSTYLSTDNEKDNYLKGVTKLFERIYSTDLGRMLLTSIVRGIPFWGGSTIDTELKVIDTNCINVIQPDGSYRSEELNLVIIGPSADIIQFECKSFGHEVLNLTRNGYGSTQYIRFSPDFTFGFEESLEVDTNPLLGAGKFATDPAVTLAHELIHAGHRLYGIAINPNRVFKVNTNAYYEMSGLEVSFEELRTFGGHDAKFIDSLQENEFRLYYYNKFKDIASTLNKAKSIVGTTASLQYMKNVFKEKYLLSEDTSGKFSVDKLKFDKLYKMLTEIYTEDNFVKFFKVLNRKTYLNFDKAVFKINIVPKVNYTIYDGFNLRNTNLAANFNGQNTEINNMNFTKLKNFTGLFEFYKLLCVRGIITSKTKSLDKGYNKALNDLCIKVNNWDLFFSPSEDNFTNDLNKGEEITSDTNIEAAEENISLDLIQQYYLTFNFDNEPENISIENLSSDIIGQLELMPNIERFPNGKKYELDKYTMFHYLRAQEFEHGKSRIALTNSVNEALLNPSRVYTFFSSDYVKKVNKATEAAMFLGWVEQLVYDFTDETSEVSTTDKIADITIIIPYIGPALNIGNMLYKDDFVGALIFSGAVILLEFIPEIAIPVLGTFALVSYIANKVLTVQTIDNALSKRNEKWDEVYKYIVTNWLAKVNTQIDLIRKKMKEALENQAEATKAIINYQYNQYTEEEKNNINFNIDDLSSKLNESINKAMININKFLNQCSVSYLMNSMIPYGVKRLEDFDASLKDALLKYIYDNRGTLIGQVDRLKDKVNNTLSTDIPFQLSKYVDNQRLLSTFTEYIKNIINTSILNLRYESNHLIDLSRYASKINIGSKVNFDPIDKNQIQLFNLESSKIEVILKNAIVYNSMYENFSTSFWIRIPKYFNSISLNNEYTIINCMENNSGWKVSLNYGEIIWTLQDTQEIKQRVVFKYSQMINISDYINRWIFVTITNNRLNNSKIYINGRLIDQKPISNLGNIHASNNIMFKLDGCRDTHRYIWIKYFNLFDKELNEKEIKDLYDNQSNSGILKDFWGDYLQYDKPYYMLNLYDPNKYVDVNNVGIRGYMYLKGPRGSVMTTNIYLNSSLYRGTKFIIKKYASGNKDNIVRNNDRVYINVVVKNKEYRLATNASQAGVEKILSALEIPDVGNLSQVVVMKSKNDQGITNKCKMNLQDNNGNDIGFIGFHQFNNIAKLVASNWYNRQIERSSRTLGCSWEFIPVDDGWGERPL

B1: scFv 1F3 (scFv)
scFv: EVQLQQSGAELVKPGASVKLSCKASGYTFTSFWMHWVKQAPGRGLEWIGRLDPNSGETKYNEKFKSKATLTVDKPSSTAYMELSSLTSEDSAVYYCAREAYGYWNFDVWGTGTTVTVSSGGGGSGGGGSGGGGSDIELTQSPASMSASPGEKVTMTCRATSSVSSSYLHWYQQKSGASPKLWIYSASNLASGVPSRFSGSGSGTSYSLTISSVEAEDAATYYCQQYIGYPYTFGGGTKLEIKR
Turning to B1, in experiment [1], the Kd – broadly, the free concentration of one partner at which half of the binding sites on the other are occupied at equilibrium, for simple one-to-one binding – is 12 nM. In addition, in experiment [2], the koff (commonly a measure of how fast the partners let go of each other) amounted to 0.011 s⁻¹ and the on-rate constant (kon) (usually the second-order rate constant of association) is 920000 M⁻¹ s⁻¹.

B2: scFv 1C6 (scFv)
scFv: QIQLLQSGGGVVQPGRSLRLSCAASGFTFSSYAMHWVRQAPGKGLEWVAVISYDGSNKYYADSVKGRFTISRDNSKNTLYLQMNSLRAEDTAVYYCARDWSEGYYYYGMDVWGQGTTVIVSSGGGGSGGGGSGGGGSDIELTQSPASLAVSLGRRATTSCRASESVEYYGTSLMQWYQQKPGQPPKLLIYAASNVESGVPARFSGSGSGTDFSLNIHPVEEEDIAMYFCQQSRKVPWTFGGGTKLEIKR
In the case of B2, binding in experiment [1] was characterised by a dissociation constant (Kd) of 20 nM. Also, in experiment [2], the off-rate constant (koff) stood at 0.0025 s⁻¹ and the kon was determined as 130000 M⁻¹ s⁻¹.

B3: scFv S25 (scFv)
scFv: QVKLQQSGAELVRPGASVKLSCKASGYSLTSYWMNWVKQRPGQGLEWIGMIHPSDSDTRFNQKFEDKATLTVDTSSSTAYMQLSSPTSEDSAVYYCARGLYNGFWYFDVWGQGTTVTVSSGGGGSGGGGSGGGGSDIELTQSPALMAASPGEKVIITCSVSSSISSSNLHWYQQKSGTSPKPWIYGTSNLASGVPVRFSGSGSGTSYSLTISSMEAEDAATYYCQQWSSYPLTFGAGTKLEIKR
B3 had an equilibrium dissociation constant (Kd) in experiment [1] of 73 nM. Moreover, in experiment [3], the “prolongation of the time to neuroparalysis (against BoNT/A alone)” value was found to be 1.5 fold. Further, in experiment [2], the koff was found to be 0.00082 s⁻¹ and the kon turned out to be 11000 M⁻¹ s⁻¹.

B4: scFv C25 (scFv)
scFv: QVQLQESGGGLVKPGGSLKLSCAASGFTFSDYYMYWVRQTPEKRLEWVATISDGGSYTYYPDSVKGRFTISRDNAKNNLYLQMSSLKSEDTAMYYCSRYRYDDAMDYWGQGTTVTVSSGGGGSGGGGSGGGGSDIELTQSPASLAVSLGQRATISCRASESVDSYGHSFMQWYQQKPGQPPKLLIYRASNLEPGIPARFSGSGSGTDFTLTINPVEADDVATYYCQQSNEDPFTFGSGTKLEIKR
With B4, in experiment [3], the “prolongation of the time to neuroparalysis (against BoNT/A alone)” value turned out to be 2.7 fold.
